Patent US20220153819A1 (Regeneron, published 2022)
Read-outs that look alike come from different tables or passages of the source.

Experiments:
IsdB.6×(His) [1] = molecular target: T1, IsdB.6×(His) (Staphylococcus aureus, UniProt A6QG30 41-613); assay: SPR (Biacore 8k), 37C; IsdB-6xHis captured via anti-His, bsAb injected
[2] = molecular target: T2, human complement component 1q (C1q) (human, UniProt P02745 23-245; P02746 28-253; P02747 29-245)
biotinylated human C1q [3] = molecular target: T3, biotinylated human C1q (human, UniProt P02745 23-245; P02746 28-253; P02747 29-245); assay: SPR (Biacore), 37C; biotinylated hC1q captured at low density, bsAb injected
T3 construct: also called Bt hC1q; bt-hC1q
T3 sequence (P02745 23-245, chain 1 of 3): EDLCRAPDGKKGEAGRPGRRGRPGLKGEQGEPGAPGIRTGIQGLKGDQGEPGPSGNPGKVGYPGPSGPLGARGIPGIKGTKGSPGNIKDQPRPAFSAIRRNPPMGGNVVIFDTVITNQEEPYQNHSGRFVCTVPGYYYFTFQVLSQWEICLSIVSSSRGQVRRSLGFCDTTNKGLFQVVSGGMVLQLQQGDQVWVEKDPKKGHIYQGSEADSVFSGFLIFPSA
T3 sequence (P02746 28-253, chain 2 of 3): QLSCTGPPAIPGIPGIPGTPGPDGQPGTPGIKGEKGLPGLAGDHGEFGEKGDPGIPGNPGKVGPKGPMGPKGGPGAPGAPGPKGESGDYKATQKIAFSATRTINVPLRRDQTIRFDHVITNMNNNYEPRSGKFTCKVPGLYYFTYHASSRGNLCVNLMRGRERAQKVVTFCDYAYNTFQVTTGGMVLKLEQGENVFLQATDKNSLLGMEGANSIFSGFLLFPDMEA
T3 sequence (P02747 29-245, chain 3 of 3): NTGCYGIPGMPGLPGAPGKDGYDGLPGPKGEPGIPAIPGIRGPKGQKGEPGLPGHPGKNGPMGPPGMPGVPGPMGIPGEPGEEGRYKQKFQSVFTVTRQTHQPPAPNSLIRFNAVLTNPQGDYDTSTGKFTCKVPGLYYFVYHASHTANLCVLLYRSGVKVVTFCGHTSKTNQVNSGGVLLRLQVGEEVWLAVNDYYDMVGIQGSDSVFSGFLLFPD

IsdB.6×(His) [4] = molecular target: T1, IsdB.6×(His); assay: SPR (Biacore), 37C; IsdB.6xHis captured, bsAb injected
[5] = molecular target: T2, human complement component 1q (C1q); assay: SPR (Biacore T200), 37C; bsAb captured via anti-human F(ab')2, hC1q injected
biotinylated human C1q [6] = molecular target: T3, biotinylated human C1q
mouse C1q = mouse C1q (mouse, UniProt P98086 23-245; P14106 26-253; Q02105 30-246); assay: not described
mouse C1q, sequence (P98086 23-245 limits assumed, chain 1 of 3): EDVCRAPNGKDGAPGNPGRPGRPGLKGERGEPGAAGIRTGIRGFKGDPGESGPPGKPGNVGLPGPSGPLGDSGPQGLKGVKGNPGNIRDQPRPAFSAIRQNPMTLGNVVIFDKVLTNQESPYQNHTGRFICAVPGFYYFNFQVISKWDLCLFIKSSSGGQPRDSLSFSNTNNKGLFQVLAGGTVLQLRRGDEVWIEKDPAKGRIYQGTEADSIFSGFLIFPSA
mouse C1q, sequence (P14106 26-253 limits assumed, chain 2 of 3): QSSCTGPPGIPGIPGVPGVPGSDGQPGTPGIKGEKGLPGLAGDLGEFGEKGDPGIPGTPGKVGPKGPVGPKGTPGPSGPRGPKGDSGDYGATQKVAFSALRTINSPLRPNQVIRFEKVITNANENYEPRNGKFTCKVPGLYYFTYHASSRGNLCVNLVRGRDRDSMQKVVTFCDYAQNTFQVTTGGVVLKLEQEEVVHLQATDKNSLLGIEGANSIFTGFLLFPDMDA
mouse C1q, sequence (Q02105 30-246 limits assumed, chain 3 of 3): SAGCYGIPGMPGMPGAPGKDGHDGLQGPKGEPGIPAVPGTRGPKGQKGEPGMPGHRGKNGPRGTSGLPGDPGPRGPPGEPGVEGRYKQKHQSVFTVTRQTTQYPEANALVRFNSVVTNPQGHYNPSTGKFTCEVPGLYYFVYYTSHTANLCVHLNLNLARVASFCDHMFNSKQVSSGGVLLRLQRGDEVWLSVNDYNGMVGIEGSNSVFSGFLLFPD

[7] = molecular target: T2, human complement component 1q (C1q); assay: SPR (Biacore T200), 25C; bsAb captured via anti-human F(ab')2, hC1q injected
[8] = molecular target: T4, hemagglutinin (HA) on A/Puerto Rico/08/1934 (H1N1)-infected MDCK cells (Influenza A virus A/Puerto Rico/08/1934 …, UniProt P03452 18-565); assay: cell ELISA on fixed A/Puerto Rico/08/1934 (H1N1)-infected MDCK cells
T4 construct: whole, on cells; also called Influenza HA

[9] = molecular target: T2, human complement component 1q (C1q); remark: listed apart in the source
IsdB.6×(His) [10] = molecular target: T1, IsdB.6×(His); assay: SPR (Biacore T200), 37C; bsAb captured, IsdB-6xHis injected
IsdB.6×(His) [11] = molecular target: T1, IsdB.6×(His); assay: SPR (Biacore 8k), 25C; IsdB-6xHis captured via anti-His, bsAb injected
biotinylated human C1q [12] = molecular target: T3, biotinylated human C1q; remark: listed apart in the source
IsdB.6×(His) [13] = molecular target: T1, IsdB.6×(His); assay: SPR (Biacore T200), 25C; bsAb captured, IsdB-6xHis injected
IsdB.6×(His) [14] = molecular target: T1, IsdB.6×(His); assay: SPR (Biacore T200), 37C; antibody captured, IsdB.6xHis injected
[15] = molecular target: T2, human complement component 1q (C1q); assay: cell-based or functional assay
[16] = molecular target: T4, hemagglutinin (HA) on A/Puerto …; assay: cell-based or functional assay
[17] = molecular target: T5, IsdB on the surface of S. aureus Newman Δspa (Staphylococcus aureus, UniProt A6QG30 41-613); assay: ELISA, plate coated with S. aureus Newman Δspa, luminescence
T5 construct: whole, on cells; also called iron-regulated surface determinant protein B

biotinylated human C1q [18] = molecular target: T3, biotinylated human C1q; remark: listed apart in the source
biotinylated human C1q [19] = molecular target: T3, biotinylated human C1q; remark: listed apart in the source
[20] = molecular target: T2, human complement component 1q (C1q)
[21] = molecular target: T6, Protein A of S. aureus (ELISA on S. aureus Newman Δspa as printed) (Staphylococcus aureus); assay: ELISA, plate coated with S. aureus Newman Δspa, luminescence
T6 construct: whole, on cells

T2 sequence (P02745 23-245, chain 1 of 3): as the sequence (P02745 23-245, chain 1 of 3) above
T2 sequence (P02746 28-253, chain 2 of 3): as the sequence (P02746 28-253, chain 2 of 3) above
T2 sequence (P02747 29-245, chain 3 of 3): as the sequence (P02747 29-245, chain 3 of 3) above

B1: REGN5066, anti-IsdB x anti-C1q bispecific antibody (bispecific antibody, V domains shown)
VH 1: EVQLVESGGGLVQPGRSLRLSCTTSGFTFDDYAMHWVRQVPGQGLEWVAGLSWNSDTIGYADSVKGRFTISRDNAKNSLYLQMKSLKAEDTALYYCTKDFYHSLNNWNYYYFDYWGQGTLVTVSS
VH 2: EVQLVESGGGVVQPGGSLRLSCAASGFSLDDYAMHWVRQTPGKGLEWVSLISGDGSRTSYADSVKGRFTISRDNSKNSLYLKMNSLRTEDTALYYCTKDPHNSNWFDPWGQGTLVTVSS
VL: not shown
notes: also called bsC1q × IsdB; bs hC1q × IsdB
- Kd (IsdB.6×(His) [1]): 7.52 nM
- koff (IsdB.6×(His) [1]): 0.00657 s⁻¹
- kon (IsdB.6×(His) [1]): 874000 M⁻¹ s⁻¹
- t½ (IsdB.6×(His) [1]): 1.8 min
- Kd [2]: 3.23 nM
- T1/2 [2]: 3.5 min
- koff [2]: 0.00334 s⁻¹
- kon [2]: 1.03e+06 M⁻¹ s⁻¹
- Kd (biotinylated human C1q [3]): 3670 nM
- T1/2 (biotinylated human C1q [3]): 0.12 min
- koff (biotinylated human C1q [3]): 0.0964 s⁻¹
- kon (biotinylated human C1q [3]): 26200 M⁻¹ s⁻¹
- Kd (IsdB.6×(His) [4]): 7.52 nM
- T1/2 (IsdB.6×(His) [4]): 1.8 min
- koff (IsdB.6×(His) [4]): 0.00657 s⁻¹
- kon (IsdB.6×(His) [4]): 874000 M⁻¹ s⁻¹
- koff [5]: 0.00502 s⁻¹
- kon [5]: 3.22e+06 M⁻¹ s⁻¹
- t1/2 [5]: 2.3 min
- Kd (biotinylated human C1q [6]): 402 nM
- koff (biotinylated human C1q [6]): 0.0366 s⁻¹
- kon (biotinylated human C1q [6]): 91100 M⁻¹ s⁻¹
- t1/2 (biotinylated human C1q [6]): 0.32 min
- binding result (mouse C1q): no binding
- Kd [7]: 0.842 nM
- koff [7]: 0.00211 s⁻¹
- kon [7]: 2.51e+06 M⁻¹ s⁻¹
- t1/2 [7]: 5.5 min
- Maximum binding (RLUs) [8]: 2500 RLU
- Kd [9]: 1.56 nM
- T1/2 [9]: 2.3 min
- koff [9]: 0.00502 s⁻¹
- kon [9]: 3.22e+06 M⁻¹ s⁻¹
- Kd (IsdB.6×(His) [10]): 3.43 nM
- koff (IsdB.6×(His) [10]): 0.000557 s⁻¹
- kon (IsdB.6×(His) [10]): 163000 M⁻¹ s⁻¹
- t1/2 (IsdB.6×(His) [10]): 20.7 min
- Kd (IsdB.6×(His) [11]): 2.3 nM
- koff (IsdB.6×(His) [11]): 0.00105 s⁻¹
- kon (IsdB.6×(His) [11]): 457000 M⁻¹ s⁻¹
- t1/2 (IsdB.6×(His) [11]): 11 min
- Kd (biotinylated human C1q [12]): 666 nM
- koff (biotinylated human C1q [12]): 0.0782 s⁻¹
- kon (biotinylated human C1q [12]): 117000 M⁻¹ s⁻¹
- t1/2 (biotinylated human C1q [12]): 0.15 min
- Kd (IsdB.6×(His) [13]): 2.36 nM
- koff (IsdB.6×(His) [13]): 0.00027 s⁻¹
- kon (IsdB.6×(His) [13]): 115000 M⁻¹ s⁻¹
- t1/2 (IsdB.6×(His) [13]): 42.8 min
- Kd (IsdB.6×(His) [14]): 3.43 nM
- T1/2 (IsdB.6×(His) [14]): 21 min
- koff (IsdB.6×(His) [14]): 0.000557 s⁻¹
- kon (IsdB.6×(His) [14]): 163000 M⁻¹ s⁻¹
- C1q deposition on S. aureus (plate-based, anti-C1q detection), EC50 [15]: 0.127 nM
- CDC EC50 (H1N1-infected MDCK cells) [16]: > 889 nM
- Maximum percent specific lysis (CDC of H1N1-infected MDCK cells) [16]: -6.15%
- EC50 [17]: 0.19 nM

B2: REGN5067, anti-IsdB x anti-C1q bispecific antibody (bispecific antibody, V domains shown)
VH 1: EVQLVESGGGLVQPGRSLRLSCTTSGFTFDDYAMHWVRQVPGQGLEWVAGLSWNSDTIGYADSVKGRFTISRDNAKNSLYLQMKSLKAEDTALYYCTKDFYHSLNNWNYYYFDYWGQGTLVTVSS
VH 2: EVQLVQSGAEVKKPGESLKIFCKGSGYSFINDWIGWVRQMPGKGLEWMGLIFPGDSDTRYSPVFQGHVTISADQSIDTAYLQWNSLKASDTAIYYCAVLRYWHFAIWGRGTLVTVSS
VL: not shown
- Kd (biotinylated human C1q [18]): 3770 nM
- Kd (biotinylated human C1q [19]): 2180 nM
- koff [5]: 0.0134 s⁻¹
- kon [5]: 6.52e+06 M⁻¹ s⁻¹
- t1/2 [5]: 0.9 min
- Kd [20]: 2.05 nM
- koff (biotinylated human C1q [6]): 0.365 s⁻¹
- kon (biotinylated human C1q [6]): 168000 M⁻¹ s⁻¹
- t1/2 (biotinylated human C1q [6]): 0.03 min
- koff [7]: 0.00435 s⁻¹
- kon [7]: 5.78e+06 M⁻¹ s⁻¹
- t1/2 [7]: 2.7 min
- Kd (IsdB.6×(His) [10]): 3.33 nM
- koff (IsdB.6×(His) [10]): 0.00052 s⁻¹
- kon (IsdB.6×(His) [10]): 156000 M⁻¹ s⁻¹
- t1/2 (IsdB.6×(His) [10]): 22.2 min
- Kd (IsdB.6×(His) [11]): 3.01 nM
- koff (IsdB.6×(His) [11]): 0.000989 s⁻¹
- kon (IsdB.6×(His) [11]): 328000 M⁻¹ s⁻¹
- t1/2 (IsdB.6×(His) [11]): 11.7 min
- koff (biotinylated human C1q [12]): 0.844 s⁻¹
- kon (biotinylated human C1q [12]): 224000 M⁻¹ s⁻¹
- t1/2 (biotinylated human C1q [12]): 0.01 min
- Kd (IsdB.6×(His) [13]): 1.7 nM
- koff (IsdB.6×(His) [13]): 0.000204 s⁻¹
- kon (IsdB.6×(His) [13]): 120000 M⁻¹ s⁻¹
- t1/2 (IsdB.6×(His) [13]): 56.6 min

B3: REGN5551, anti-Protein A x anti-C1q bispecific antibody (bispecific antibody, V domains shown)
VH 1: EVQLVESGGGLVQPGGSLRLSCAASGFTFTSYDMHWVRQATGKGLEWVSNIDPAGNTFYPGSVKGRFTISRENAKKSLYLQMNSLRAGDTAVYYCARNLGNWGYDHWGQGTLVTVSS
VH 2: EVQLVESGGGVVQPGGSLRLSCAASGFSLDDYAMHWVRQTPGKGLEWVSLISGDGSRTSYADSVKGRFTISRDNSKNSLYLKMNSLRTEDTALYYCTKDPHNSNWFDPWGQGTLVTVSS
VL: not shown
notes: also called bsC1q × Protein A; bs hC1q × protein A
- Kd [9]: 1.36 nM
- koff [9]: 0.00488 s⁻¹
- kon [9]: 3.06e+06 M⁻¹ s⁻¹
- EC50 [21]: 0.148 nM
